Legend:
Assay in all cases: MST; His-tagged DHS variants labelled with RED-tris-NTA 2nd Generation, 8.32 nM; eIF5A titrated, sixteen dilutions 0.00175–57.5 μM; 50 mM Tris, 200 mM NaCl, 5 mM β-ME pH 8; Monolith NT.115, 40% excitation power, 60% MST power; no NAD or SPD
Details in all cases: both partners purified
[1] = biological target: T1, deoxyhypusine synthase M244A, His-tagged (human, UniProt P49366 1-369, M244A, RED-tris-NTA 2nd Generation dye on the His tag)
T1 construct: human deoxyhypusine synthase, Uniprot P49366, residues 1-369, site-directed mutant of the pET24d full-length construct; also called DHS M244A; source: E. coli, purified; not shown: 6xHis, N-terminal, kept
T1 sequence (looked up): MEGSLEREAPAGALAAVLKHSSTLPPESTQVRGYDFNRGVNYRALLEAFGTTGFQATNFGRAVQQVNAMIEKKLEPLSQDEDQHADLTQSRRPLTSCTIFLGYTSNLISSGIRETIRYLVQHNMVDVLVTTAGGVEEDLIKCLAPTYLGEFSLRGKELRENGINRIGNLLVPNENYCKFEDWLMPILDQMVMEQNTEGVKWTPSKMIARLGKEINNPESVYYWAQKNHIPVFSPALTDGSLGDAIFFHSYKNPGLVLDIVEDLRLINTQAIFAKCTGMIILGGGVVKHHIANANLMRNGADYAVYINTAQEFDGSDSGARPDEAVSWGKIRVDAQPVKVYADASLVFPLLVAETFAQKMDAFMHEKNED

[2] = biological target: T2, deoxyhypusine synthase Q83A, His-tagged (human, UniProt P49366 1-369, Q83A, RED-tris-NTA 2nd Generation dye on the His tag)
T2 construct: human deoxyhypusine synthase, Uniprot P49366, residues 1-369, site-directed mutant of the pET24d full-length construct; also called DHS Q83A; source: E. coli, purified; not shown: 6xHis, N-terminal, kept
T2 sequence (looked up): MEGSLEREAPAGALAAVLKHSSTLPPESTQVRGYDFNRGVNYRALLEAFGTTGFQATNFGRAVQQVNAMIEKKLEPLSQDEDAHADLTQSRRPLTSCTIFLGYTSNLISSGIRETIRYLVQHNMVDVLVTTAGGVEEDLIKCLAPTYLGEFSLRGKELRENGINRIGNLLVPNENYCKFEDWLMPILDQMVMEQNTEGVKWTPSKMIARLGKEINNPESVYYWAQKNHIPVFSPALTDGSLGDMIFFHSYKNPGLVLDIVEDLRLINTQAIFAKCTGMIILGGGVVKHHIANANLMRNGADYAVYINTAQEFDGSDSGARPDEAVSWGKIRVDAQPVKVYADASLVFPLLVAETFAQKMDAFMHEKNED

[3] = biological target: T3, deoxyhypusine synthase Y250A, His-tagged (human, UniProt P49366 1-369, Y250A, RED-tris-NTA 2nd Generation dye on the His tag)
T3 construct: human deoxyhypusine synthase, Uniprot P49366, residues 1-369, site-directed mutant of the pET24d full-length construct; also called DHS Y250A; source: E. coli, purified; not shown: 6xHis, N-terminal, kept
T3 sequence (looked up): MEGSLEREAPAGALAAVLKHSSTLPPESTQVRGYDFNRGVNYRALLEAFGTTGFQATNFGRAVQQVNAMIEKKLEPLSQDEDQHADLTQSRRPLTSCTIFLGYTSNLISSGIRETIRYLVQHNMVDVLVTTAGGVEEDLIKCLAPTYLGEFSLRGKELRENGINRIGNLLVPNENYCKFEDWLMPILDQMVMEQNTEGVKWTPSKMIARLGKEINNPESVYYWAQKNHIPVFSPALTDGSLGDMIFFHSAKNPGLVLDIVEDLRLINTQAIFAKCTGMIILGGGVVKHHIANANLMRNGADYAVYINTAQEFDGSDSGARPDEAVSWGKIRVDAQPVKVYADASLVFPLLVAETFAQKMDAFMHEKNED

[4] = biological target: T4, deoxyhypusine synthase F247A, His-tagged (human, UniProt P49366 1-369, F247A, RED-tris-NTA 2nd Generation dye on the His tag)
T4 construct: human deoxyhypusine synthase, Uniprot P49366, residues 1-369, site-directed mutant of the pET24d full-length construct; also called DHS F247A; source: E. coli, purified; not shown: 6xHis, N-terminal, kept
T4 sequence (looked up): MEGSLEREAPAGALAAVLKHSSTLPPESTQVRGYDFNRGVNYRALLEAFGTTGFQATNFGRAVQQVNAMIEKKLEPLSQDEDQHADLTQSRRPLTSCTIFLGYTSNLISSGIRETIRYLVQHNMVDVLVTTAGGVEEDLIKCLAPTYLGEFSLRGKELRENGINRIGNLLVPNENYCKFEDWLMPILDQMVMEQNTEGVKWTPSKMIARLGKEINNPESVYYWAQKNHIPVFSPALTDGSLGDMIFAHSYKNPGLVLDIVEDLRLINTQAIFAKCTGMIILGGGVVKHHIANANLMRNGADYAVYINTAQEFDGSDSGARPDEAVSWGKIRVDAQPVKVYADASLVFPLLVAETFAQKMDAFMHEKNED

Measured: Kd

B1: eukaryotic translation factor 5A (eIF5A-1), residues 15-151 (domain or fragment)
chain: not shown
notes: human eIF5A1, residues 15-151, from pET28-MHL (Addgene); The purification protocol removes the tag with TEV; source: E. coli, purified (HisTrap, TEV cleavage, reverse HisTrap, SEC); not shown: His tag, N-terminal, cleaved
> 5 µM: [1] | [2] | [3] | [4]

From publication PMC10042821, “Cryo-EM structure of human eIF5A-DHS complex reveals the molecular basis of hypusination-associated neurodegenerative disorders” (Nature Communications, 2023)
